In this test the target is AaSR-C-Full (full-length A. aegypti scavenger receptor-C with its trans-membrane region, 23-494 aa) (Aedes aegypti). As to the kind of experiment: flow cytometry on cells.

This note sets out measurements from PMC3983052.

Substance “purified inactivated DENV-2 virions (complex)” registered a percent of AaSR-C-expressing cells bound by DENV-2 virions above 90%.
